Assay results published in patent publication US20240218055A1 (US Dept. of Health and Human Services, published 2024).
Where two headings read alike, the source gives them in different places.

Tests used:
[1] = biological target: T1, LASV GP1 subunit protein (Lassa virus, UniProt P08669 59-259); assay: BLI
T1 sequence: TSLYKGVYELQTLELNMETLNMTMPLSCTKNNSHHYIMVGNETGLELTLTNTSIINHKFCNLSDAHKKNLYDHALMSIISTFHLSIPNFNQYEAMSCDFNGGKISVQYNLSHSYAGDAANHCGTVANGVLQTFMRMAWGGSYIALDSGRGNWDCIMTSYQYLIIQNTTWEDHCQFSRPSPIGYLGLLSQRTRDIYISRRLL

[2] = biological target: T1, LASV GP1 subunit protein; assay: BLI; remark: listed apart in the source
[3] = biological target: T2, LASV Josiah GPC on pseudotyped rVSV (Lassa virus (Josiah strain), UniProt P08669 1-491); assay: cell-based or functional assay
T2 sequence: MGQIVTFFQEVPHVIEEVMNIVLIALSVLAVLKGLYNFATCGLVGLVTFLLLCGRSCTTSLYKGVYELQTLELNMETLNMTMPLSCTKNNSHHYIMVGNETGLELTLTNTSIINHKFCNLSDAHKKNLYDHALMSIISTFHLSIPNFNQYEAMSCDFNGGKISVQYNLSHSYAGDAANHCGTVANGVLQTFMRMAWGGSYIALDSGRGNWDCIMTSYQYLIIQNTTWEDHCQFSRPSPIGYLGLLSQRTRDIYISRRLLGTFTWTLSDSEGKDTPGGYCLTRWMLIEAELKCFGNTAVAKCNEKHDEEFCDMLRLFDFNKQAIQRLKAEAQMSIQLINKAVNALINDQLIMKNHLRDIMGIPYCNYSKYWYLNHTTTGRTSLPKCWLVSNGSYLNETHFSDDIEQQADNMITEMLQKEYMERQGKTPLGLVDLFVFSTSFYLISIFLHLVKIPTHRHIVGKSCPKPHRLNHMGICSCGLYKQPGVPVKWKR

[4] = biological target: bovine serum albumin (bovine, UniProt P02769 25-607); assay: ELISA, plate coated with BSA
[5] = biological target: LASV GP2 subunit protein (Lassa virus); assay: BLI

Sequence of bovine serum albumin (P02769 25-607 limits assumed): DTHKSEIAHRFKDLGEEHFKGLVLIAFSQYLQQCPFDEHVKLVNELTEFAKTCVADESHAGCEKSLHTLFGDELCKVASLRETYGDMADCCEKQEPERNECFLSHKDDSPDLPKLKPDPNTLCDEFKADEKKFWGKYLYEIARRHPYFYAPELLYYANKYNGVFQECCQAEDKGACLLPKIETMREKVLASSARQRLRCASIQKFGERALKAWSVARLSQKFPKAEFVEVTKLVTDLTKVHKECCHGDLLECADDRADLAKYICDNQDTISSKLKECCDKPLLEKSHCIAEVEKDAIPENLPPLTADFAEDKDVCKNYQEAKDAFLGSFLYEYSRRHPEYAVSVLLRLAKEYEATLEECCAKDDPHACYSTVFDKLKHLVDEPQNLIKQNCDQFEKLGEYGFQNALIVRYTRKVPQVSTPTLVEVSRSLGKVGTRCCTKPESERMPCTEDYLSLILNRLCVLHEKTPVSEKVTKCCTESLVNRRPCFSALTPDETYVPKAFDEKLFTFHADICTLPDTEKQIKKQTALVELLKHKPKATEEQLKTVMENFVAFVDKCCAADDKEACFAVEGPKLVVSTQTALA

B1: shark VNAR B10 (VNAR)
VNAR: ARVDQTPQTITKETGESLTINCVLRDSNCPLSSTFWYRADAGSLNEENISKGGRYVETVNSGSKSFSLRINDLTTEDSGTYRCKVAGLPLDCIPARGLELNWREDVYGGGTAVTVN
[1]
  Kd: 78.6 nM
[2]
  koff: 0.00414 s⁻¹
  kon: 52700 M⁻¹ s⁻¹
[3]
  neutralization of LASV pseudotyped Josiah virus: < 50%
[4]
  binding result: no binding (tested: 1 ug/ml (single concentration))

B2: shark VNAR A1 (VNAR)
VNAR: ARVDQTPQTITKETGESLTINCVPPDSNCALADTYWYRKKSGSTNEESISKGGRYVPTVNSGSKSFILRINDLRVADSGTYRCKVSCYAAAYYGQQLERLYDVYGGGTAVTVN
[1]
  Kd: 18.6 nM
[3]
  neutralization of LASV pseudotyped Josiah virus: < 50%
[4]
  binding result: no binding (tested: 1 ug/ml (single concentration))

B3: bivalent single domain antibody D5 in IgG2a format (Fc fusion)
chain 1: AWQLVESGGGSVQPGGSLTLTCQASKSTFSTSGMRWERQAQGKGVEFVADISSDSTRKWYSDSVKGRFTISRSNWWRTVTLQMNDLKPEDTARYYCKDLESHHLRGQGTQVTVSSAAAEPKIPQPQPKPQPQPQPQPKPQPKPEPECTCPKCP
chain 2: AWQLVESGGGSVQPGGSLTLTCQASKSTFSTSGMRWERQAQGKGVEFVADISSDSTRKWYSDSVKGRFTISRSNWWRTVTLQMNDLKPEDTARYYCKDLESHHLRGQGTQVTVSSAAAEPKIPQPQPKPQPQPQPQPKPQPKPEPECTCPKCP
[3]
  IC50, neutralization of Josiah pseudovirus: 12 µg/mL

B4: shark VNAR B8 (VNAR)
VNAR: ARVDQTPQTVTKETGESLTINCVLRDSNCALPSTYWYRKKSGSTNEENISKGGRYVETVNSGSKSFSLRINDLRPEDSGTYRCKVHGLPLDCIPARGLELNWREDVNGGGTAVTVN
[1]
  Kd: 15.9 nM
[2]
  koff: 0.00236 s⁻¹
  kon: 149000 M⁻¹ s⁻¹
[3]
  neutralization of LASV pseudotyped Josiah virus: < 50%
[4]
  binding result: no binding (tested: 1 ug/ml (single concentration))

B5: camel VHH D5 (VHH)
VHH: AWQLVESGGGSVQPGGSLTLTCQASKSTFSTSGMRWERQAQGKGVEFVADISSDSTRKWYSDSVKGRFTISRSNWWRTVTLQMNDLKPEDTARYYCKDLESHHLRGQGTQVTVSS
[1]
  Kd: 20.8 nM
[2]
  Kd: 20.8 nM
  kon: 23400 M⁻¹ s⁻¹
[3]
  neutralization of LASV pseudotyped Josiah virus: < 50%

B6: shark VNAR C3 (VNAR)
VNAR: ARVDQTPQTITAETGESLTINCVLRNSDCGLSDTYWFRMSPGSGSEERISIGGRYLETVNSVSKSFSLRINDLTVEDSGRYRCKTDVYRYVSGSGCLYSYFASGAGTVVTVN
[5]
  Kd: 10.6 nM
  koff: 0.000265 s⁻¹
  kon: 25100 M⁻¹ s⁻¹
[1]
  binding result: no binding
[3]
  neutralization of LASV pseudotyped Josiah virus: < 50%
[4]
  binding result: no binding (tested: 1 ug/ml (single concentration))

B7: shark VNAR A10 (VNAR)
chain: ARVDQTPQTITKETGESLTITCILRDSQCALSPTYWYHKKSGSTKPERIYKGGRYVETVNSGSKSFSLRINDLTVEDSGTFFCKVSGWYAYSCRLEPDGYYDVYGGGTVVTVN
[1]
  Kd: 22.7 nM
[3]
  neutralization of LASV pseudotyped Josiah virus: < 50%
[4]
  binding result: no binding (tested: 1 ug/ml (single concentration))
